Laboratory results published in patent US20240026019A1 (Innovent, published 2024).

Columns and labels:
[1] = target: T1, TNFR2 on human K562 chronic myeloid leukemia cells and on primary human Treg cells (human, UniProt P20333 23-461); assay: flow cytometry on human K562 CML cells, MFI(FL2); unit taken from the axis Conc log(nM)
T1 construct: whole, on cells; also called K562 cells
T1 sequence (looked up): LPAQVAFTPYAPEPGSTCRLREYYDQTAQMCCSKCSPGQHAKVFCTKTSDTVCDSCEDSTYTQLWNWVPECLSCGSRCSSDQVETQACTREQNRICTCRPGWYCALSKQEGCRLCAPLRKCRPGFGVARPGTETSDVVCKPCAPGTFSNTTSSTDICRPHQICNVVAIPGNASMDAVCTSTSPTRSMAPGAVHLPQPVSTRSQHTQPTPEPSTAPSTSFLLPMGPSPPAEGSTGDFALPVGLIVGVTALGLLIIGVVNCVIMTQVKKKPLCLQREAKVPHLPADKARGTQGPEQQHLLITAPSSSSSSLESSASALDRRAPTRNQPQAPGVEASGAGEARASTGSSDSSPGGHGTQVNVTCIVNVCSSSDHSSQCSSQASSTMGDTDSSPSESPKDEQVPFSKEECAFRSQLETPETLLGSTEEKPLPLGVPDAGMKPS
Experimental: (§1) Assay steps: The mixture was centrifuged at 400 g for 5 min, and the cell medium was removed. K562 or Treg cells were resuspended in PBS. After counting, the cells were adjusted to a density of 2×10⁶/mL, and the cell suspension was added to a U-bottom 96-well plate at 100 μL/well. The test antibody was added, subjected to a three-fold gradient dilution, and left to stand on ice for 30 min. The mixture was centrifuged at 300 g for 5 min, and the supernatant was removed. The cells were washed once with PBS. The mixture was centrifuged at 300 g for 5 min, and PBS was removed. 100 μL of PE-anti-human Fc antibody (SOUTHERN BIOTECH, 2040-09) diluted at a ratio of 1:200 was added to each well. The mixture was incubated on ice for 30 min in the dark. The mixture was centrifuged at 400 g for 5 min, and the supernatant was removed. The cells were washed twice with PBS. The cells were resuspended in 100 μL of PBS and assayed by using a flow cytometer (BD, ACCURIC6 plus).

[2] = target: T1, TNFR2 on human K562 chronic myeloid …; assay: flow cytometry on primary human Treg cells, MFI(FL2); unit taken from the axis Conc log(nM)
Experimental: Tregs were prepared as follows: Human PBMC cells ([…], PB005F) were thawed, CD4⁺ CD25⁺ CD127^low cells were sorted by flow cytometry, and Treg cells were isolated. According to CD4⁺:anti-CD3/CD28 Beads=1:1, Dynabeads Human T-Activator CD3/CD28 (Gibco, 11131D) was added, followed by 10 ng/mL recombinant IL2, and the cells were stimulated for 7 days.
as §1

[3] = target: T2, human TNFR2 overexpressed on CHO-S cells (CHOS-hTNFR2) (human, UniProt P20333 23-461); assay: flow cytometry on CHO-S cells overexpressing human TNFR2 (positive control), MFI-FL2-A; unit taken from the axis Conc log(nM)
T2 construct: also called hTNFR2 CHO-S; human TNFR2 molecule overexpressed on CHO-S cells
T2 sequence: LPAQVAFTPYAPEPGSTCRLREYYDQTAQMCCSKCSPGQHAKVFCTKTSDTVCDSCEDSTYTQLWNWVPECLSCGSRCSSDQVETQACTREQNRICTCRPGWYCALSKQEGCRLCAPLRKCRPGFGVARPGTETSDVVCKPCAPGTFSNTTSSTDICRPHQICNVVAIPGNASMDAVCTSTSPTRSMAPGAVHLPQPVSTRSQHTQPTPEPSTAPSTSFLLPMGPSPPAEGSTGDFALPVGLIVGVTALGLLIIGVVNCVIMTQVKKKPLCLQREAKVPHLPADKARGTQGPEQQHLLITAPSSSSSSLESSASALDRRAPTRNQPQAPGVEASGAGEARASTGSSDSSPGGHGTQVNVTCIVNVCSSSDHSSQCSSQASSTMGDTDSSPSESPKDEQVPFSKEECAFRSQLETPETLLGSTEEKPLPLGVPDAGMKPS
Experimental: In the study, the binding of the chimeric antibodies of the present invention, after being diluted in a gradient, to a stable CHO-S cell strain overexpressing human TNFR2 on the surface was assayed by using a flow cytometer. cDNAs encoding human TNFR2 (SEQ ID NO: 60) and cynomolgus monkey TNFR2 (SEQ ID NO: 61) were cloned into pCH01.0 vectors (Invitrogen), which were transfected into CHO-S cells (Invitrogen) to produce CHO-S cells overexpressing human TNFR2 (CHOS-hTNFR2) and CHO-S cells overexpressing cynomolgus monkey TNFR2 (CHOS-cTNFR2).
CHOS-hTNFR2 cells or CHOS-cTNFR2 cells were counted and diluted to 2×10⁶ cells/mL, and added to a U-bottom 96-well plate at 100 μL/well. The mixture was centrifuged at 300 g for 5 min, and the cell medium was removed. The dilutions of the samples (the chimeric antibodies 3C4, 69B1, and 72G8 and the positive control antibody OPI) (the antibodies were subjected to a three-fold serial dilution in PBS from the maximum antibody concentration of 300 nM) were added to the U-plate, and the cells were resuspended at 100 μL/well and left to stand on ice for 30 min. The suspension was centrifuged at 400 g for 5 min, and the supernatant was removed. The cells were washed twice with PBS. The mixture was centrifuged at 300 g for 5 min, and PBS was removed. […]

EC50 [1]: 0.0916 nM
EC50 [2]: 0.0738 nM
EC50 [3]: 2.62 nM
B1: positive control antibody OPI (humanized antibody SBT-002e in WO 2017083525) (antibody, V domains shown)
VH: QVTLKESGPALVKPTQTLTLTCTFSGFSLSTSGMGVGWIRQPPGKALEWLAHIWWDDDKFYNPSLKSRLTISKDTSKNQVVLTMTNMDPVDTATYYCARLTGTRYFDYWGQGTTVTVSS
VL: DVQMTQSPSSLSASVGDRVTITCKASQDINKFIAWYQQKPGKAPKLLIHYTSTLQPGIPSRFSGSGSGRDYTFTISSLQPEDIATYYCLQYGNLWTFGGGTKVEIK
notes: also called Benchmark OPI
